We go through 49 molecules from US11155602B2, “Polypeptides targeting HIV fusion” (priority 2015, dated 2021).

Positions count from the first letter of the chain named.

In the test the test system is NL-Rluc virus. Description: Combinectin potency assay: antiviral EC50, NL-Rluc virus in MT-2 cells, luciferase readout. The following applies: Anti-N17 Adnectin, Table 3. In kind it is cell-based, HIV-1. The essentials:
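MT-2 cells infected with replication-competent NL-Rluc HIV (nef replaced by Renilla luciferase) at MOI 0.01 for 1 h, then added to threefold-diluted peptides (11 concentrations, triplicate). After 4–5 days, luciferase measured by Dual Luciferase; EC50 relative to no-peptide wells.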

B1: 134 (protein)
chain: MGHHHHHHGGSVSDVPRDLEVVAATPTSLLISWDAPAVTVEQYYIAYYDEKEPSSYQYFRVPGSKSTATISGLKPGVEYAIFVNAVTRSGVLPEFSLPISINYRTEGS
modifications: Adnectin
With B1, the EC50 stood at 5 nM.

B2: 136 (protein)
chain: B1 chain with A46G, D49V, K51A, R60F, E78D, R88A, V91R, L92G, F95Y
modifications: Adnectin
Regarding B2, the EC50 was 5 nM.

B3: 302 (protein)
chain: MGHHHHHHGGSVSDVPRDLEVVAATPTSLLISWEYKVHPYRYYRITYGETGGNSPVQEFTVPSVLSSATINGLKPGVDYTITVYAVTYGDDSAPISINYRTEID
modifications: Adnectin
As for B3, the 50% effective concentration (EC50) came to 4 nM.

B4: 312 (protein)
chain: B3 chain with T60L, S67T, N71S
modifications: Adnectin
B4: the EC50 is 37 nM.

B5: 333 (protein)
chain: B3 chain with H38S, Y40W, S67T, N71S
modifications: Adnectin
B5: the EC50 was over 1000 nM.

B6: 314 (protein)
chain: B3 chain with H38A, P39Y, Y40K, S67T, N71S
modifications: Adnectin
With B6, the EC50 was over 1000 nM.

B7: 330 (protein)
chain: B3 chain with S67T, N71S, A93P
modifications: Adnectin
As to B7, the EC50 is 99 nM.

B8: 307 (protein)
chain: B3 chain with S28G, S67T, N71S
modifications: Adnectin
Take B8: the EC50 worked out at 205 nM.

B9: 343 (protein)
chain: B3 chain with S67T, N71S, D91H
modifications: Adnectin
For the molecule B9, the EC50 came to 122 nM.

B10: 324 (protein)
chain: B3 chain with S67T, N71S, A93N
modifications: Adnectin
Regarding B10, the EC50 worked out at 487 nM.

B11: 320 (protein)
chain: B3 chain with H38T, P39T, Y40W, S67T, N71S
modifications: Adnectin
Consider B11, for which the EC50 is over 1000 nM.

B12: 345 (protein)
chain: B3 chain with S67T, N71S, A93R
modifications: Adnectin
For the molecule B12, the EC50 is over 1000 nM.

B13: 316 (protein)
chain: B3 chain with K36A, S67T, N71S
modifications: Adnectin
On to B13, for which the EC50 stood at 331 nM.

B14: 319 (protein)
chain: B3 chain with H38S, P39H, Y40G, S67T, N71S
modifications: Adnectin
Regarding B14, the EC50 was over 1000 nM.

B15: 347 (protein)
chain: B3 chain with H38N, P39Y, Y40R, S67T, N71S
modifications: Adnectin
With B15, the EC50 is over 1000 nM.

B16: 336 (protein)
chain: B3 chain with S67T, N71S, A93D
modifications: Adnectin
B16: the EC50 stood at 171 nM.

B17: 323 (protein)
chain: B3 chain with S67T, N71S, D91Q
modifications: Adnectin
Take B17: the EC50 is 126 nM.

B18: 338 (protein)
chain: B3 chain with H38N, P39R, S67T, N71S
modifications: Adnectin
As to B18, the EC50 was over 1000 nM.

B19: 337 (protein)
chain: B3 chain with S67T, N71S, A93Y
modifications: Adnectin
In the case of B19, the EC50 is over 1000 nM.

B20: 309 (protein)
chain: B3 chain with S67T, N71S, Y88H
modifications: Adnectin
In the case of B20, the EC50 was over 1000 nM.

B21: 322 (protein)
chain: B3 chain with S67T, N71S, D90T
modifications: Adnectin
On to B21, for which the EC50 amounted to 96 nM.

B22: 313 (protein)
chain: B3 chain with H38A, P39H, Y40G, S67T, N71S
modifications: Adnectin
In the case of B22, the EC50 is over 1000 nM.

B23: 306 (protein)
chain: B3 chain with H38D, P39Y, Y40R, S67T, N71S
modifications: Adnectin
As for B23, the EC50 is over 1000 nM.

B24: 344 (protein)
chain: B3 chain with S67T, N71S, A93E
modifications: Adnectin
With B24, the EC50 is over 1000 nM.

B25: 318 (protein)
chain: B3 chain with H38N, P39G, S67T, N71S
modifications: Adnectin
With B25, the EC50 is over 1000 nM.

B26: 325 (protein)
chain: B3 chain with H38N, P39H, Y40D, S67T, N71S
modifications: Adnectin
For the molecule B26, the EC50 was over 1000 nM.

B27: 135 (protein)
chain: B3 chain with E34K, K36N, H38N, P39A, S67T, N71S, D90V, D91H, A93S
modifications: Adnectin
For B27, the EC50 is over 1000 nM.

B28: 348 (protein)
chain: B3 chain with H38S, P39T, Y40W, S67T, N71S
modifications: Adnectin
Regarding B28, the EC50 is over 1000 nM.

B29: 304 (protein)
chain: B3 chain with H38A, P39H, Y40D, S67T, N71S
modifications: Adnectin
Take B29: the EC50 was over 1000 nM.

B30: 310 (protein)
chain: B3 chain with S67T
modifications: Adnectin
Regarding B30, the EC50 is 62 nM.

B31: 311 (protein)
chain: B3 chain with S67T, T69E, N71S
modifications: Adnectin
As for B31, the EC50 is 42 nM.

B32: 327 (protein)
chain: B3 chain with H38T, P39Y, Y40E, S67T, N71S
modifications: Adnectin
Regarding B32, the EC50 was over 1000 nM.

B33: 329 (protein)
chain: B3 chain with S67T, N71S, D91V
modifications: Adnectin
Take B33: the EC50 is 102 nM.

B34: 315 (protein)
chain: B3 chain with H38D, P39R, Y40W, S67T, N71S
modifications: Adnectin
With B34, the EC50 is over 1000 nM.

B35: 332 (protein)
chain: B3 chain with H38N, P39R, Y40W, S67T, N71S
modifications: Adnectin
For B35, the EC50 was over 1000 nM.

B36: 303 (protein)
chain: B3 chain with T60K, S67T, N71S
modifications: Adnectin
Regarding B36, the EC50 turned out to be 109 nM.

B37: 305 (protein)
chain: B3 chain with H38D, S67T, N71S
modifications: Adnectin
B37: the EC50 was determined as 83 nM.

B38: 317 (protein)
chain: B3 chain with H38N, P39A, S67T, N71S
modifications: Adnectin
Turning to B38, the EC50 was over 1000 nM.

B39: 346 (protein)
chain: B3 chain with S67T, N71S, N98Q
modifications: Adnectin
As for B39, the EC50 is 83 nM.

B40: 326 (protein)
chain: B3 chain with H38S, P39H, Y40R, S67T, N71S
modifications: Adnectin
Consider B40, for which the EC50 is over 1000 nM.

B41: 334 (protein)
chain: B3 chain with H38T, P39Y, Y40R, S67T, N71S
modifications: Adnectin
Consider B41, for which the EC50 was over 1000 nM.

B42: 339 (protein)
chain: B3 chain with H38S, P39R, Y40W, S67T, N71S
modifications: Adnectin
As for B42, the EC50 is over 1000 nM.

B43: 133 (protein)
chain: B3 chain with P39Y, Y40D, S67T, N71S, D90V, A93D
modifications: Adnectin
For the molecule B43, the EC50 is 42 nM.

B44: 308 (protein)
chain: B3 chain with H38N, P39A, Y40W, S67T, N71S
modifications: Adnectin
With B44, the EC50 is over 1000 nM.

B45: 341 (protein)
chain: B3 chain with E58S, S67T, N71S
modifications: Adnectin
With B45, the EC50 was over 1000 nM.

B46: 335 (protein)
chain: B3 chain with S67T, N71S, D91E
modifications: Adnectin
For the molecule B46, the EC50 amounted to 112 nM.

B47: 342 (protein)
chain: B3 chain with S67T, N71S, D90I
modifications: Adnectin
B47: the EC50 was over 1000 nM.

B48: 349 (protein)
chain: B3 chain with H38Y, P39A, S67T, N71S
modifications: Adnectin
As to B48, the EC50 is over 1000 nM.

B49: 321 (protein)
chain: MGHHHHHHGGSVSDVPRDLEVVAATPTSLLISWEYKVHPYRYYRITYGETGGNSPVQEFTVPSVLSSAXLSGLKPGVDYTITVYAVTYGDDSAPISINYRTEID
modifications: not fully specified
Take B49: the EC50 stood at 55 nM.

As usually defined, the EC50 is the concentration giving half of the maximal effect.
